Data: patent US20180140716A1

Experiments:
[1] = target: 5T4 antigen on cells (human (human cancer cell lines)) (UniProt Q13641); experiment: flow cytometry (MFI) on 5T4 expressing cells, anti-Fc FITC detection
CD33 on HL-60 cells = CD33 on HL-60 cells (UniProt P20138); experiment: cell-based or functional assay
UniProt P20138, sequence (P20138 18-364 limits assumed): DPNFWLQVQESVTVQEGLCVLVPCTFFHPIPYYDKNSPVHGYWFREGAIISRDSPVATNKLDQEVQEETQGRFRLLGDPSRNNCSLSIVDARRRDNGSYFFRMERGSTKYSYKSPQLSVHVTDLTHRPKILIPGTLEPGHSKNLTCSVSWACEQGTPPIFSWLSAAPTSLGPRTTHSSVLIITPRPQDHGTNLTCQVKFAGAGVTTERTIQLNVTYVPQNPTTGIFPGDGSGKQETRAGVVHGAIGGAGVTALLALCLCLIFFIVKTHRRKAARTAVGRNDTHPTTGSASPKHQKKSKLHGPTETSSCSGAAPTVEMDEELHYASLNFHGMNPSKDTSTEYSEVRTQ

UniProt Q13641, sequence (Q13641 32-420): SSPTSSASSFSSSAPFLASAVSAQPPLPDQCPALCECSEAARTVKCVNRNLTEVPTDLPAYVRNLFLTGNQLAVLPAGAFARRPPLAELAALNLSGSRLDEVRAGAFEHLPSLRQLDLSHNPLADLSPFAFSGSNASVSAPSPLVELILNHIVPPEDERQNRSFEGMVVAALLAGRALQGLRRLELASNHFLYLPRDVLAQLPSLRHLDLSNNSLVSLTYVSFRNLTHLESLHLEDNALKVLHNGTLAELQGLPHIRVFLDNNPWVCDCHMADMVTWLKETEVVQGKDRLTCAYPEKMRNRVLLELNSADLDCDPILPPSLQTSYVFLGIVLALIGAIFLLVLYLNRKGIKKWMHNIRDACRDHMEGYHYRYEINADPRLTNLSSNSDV

Substance | fold less binding than the anti-5T4 scFvFc proteins [1] | IC50, antiproliferation (Cell Titer-Glo), HL-60 cells (CD33 on HL-60 cells)
non-binding scFvFc fusion protein | 200 fold less | 
Lintuzumab-((EG2-MI (2%)-(10 kDa PHF-BA (30%)-(AF-HPA-Ala (9%)), AF-HPA:lintuzumab about 10:1 to about 15:1 (antibody) |  | 0.77 nM
